# Experimental data: the DeepSol protein solubility set
# Assay: soluble on expression in E. coli; label from the status in PepcDB or PDB records
row,Sequence,soluble on expression in E. coli
1,MGSDKIHHHHHHMIQIGKRYSLEVVKQVNFGVYLNAQELGQVLLPNKFVPTGCNVGDMVDVFLYLDSEDIVIATTQKSLAQVGEYAYLKVIATGPFGAFLDWGLDKDLLLPFGEQHKPAEEGHSYLVYVHANHADERIMASSKLDKFVDKTEAHYTEGEQVNLIIGGTTELGYKAIINNLHWGVIYANEVFQKLRFGQKVTGYIKTMRSDGKIDLVLQKGDKDELDKNARLIINKLRSANGFLPLHDKTDADVIYDKLGMSKKAFKKSIGGLFKAGEITIESEGIRLTV,not soluble
2,MAHHHHHHMTVNNSNNNNNGERLGSGTARLFVGQLNFDATEHDLRQIFSFYGHVIHTNVLRDADGKSTGSGFVTFRVTDEADFAIMSMHDRYNMGREKPLQVSYCRRSERISPFGYEHAMKLREKNTTNPPPPQPTSS,soluble
3,MGSDKIHHHHHHMWDYDRLFEIIEELVMHHSPSGAEAEINQLLMQRFAALGVEVWCDRADNIIAKIPGKNPDRAMSNDKPLLYERLRQRAYAITAHKDEIGAIVKSLGDEGRVEVRKLGGSFPWVYGEGVVDLLGDRETISGILSFGSRHVSHESPQKVQQEDTTVKWENAWIETKRTTDELEAAGVRPGTRMVIGKHRKHPIRLKDHIASYTLDNKASVAILLALAENLKQPVVDVYLVASAKEEVGAIGALFFTQNQPLDALIALEVCPLSEEYPIKDGESPILLSQDAYGIYDEGLNGQVRQSAKQLDIPVQLTILSQFGSDASIAMKFGHVARAACLAFPTQNTHGYEIAHLGAIANCIDLLKAFCETEF,not soluble
4,MKPKLILMSHGRMAEETLASTQMIVGELADAAIVSMTAEDGLSGTQAKLAAILKEAGNVPTLVLADLKGGTPCNVAMMAMGTYPQLRVVAGLNLAMAIEAAVSPVENVDELAAYLTQIGQSAVTTIDLPELTDEEEFEE,soluble
5,LTVHYDLQLYKINYKTQSPDGNLTIASGLVAMPIHPVGQVGIISYQHGTRFERNDVPSRNNEKNYIYLAAYGNSAGYMTVMPDYLGLGDNELTLHPYVQAETLASSSIDMLFAAKELANRLHYPISDKLYLAGYSEGGFSTIVMFEMLAKEYPDLPVSAVAPGSAPYGWEETMHFVMLEPGPRATAYLAYFFYSLQTYKSYWSGFDEIFAPPYNTLIPELMDGYHAVDEILQALPQDPLLIFQPKFSNGIISKTDRNTEILKINFNHYDFKPTAPLLLVGTKGDRDVPYAGAEMAYHSFRKYSDFVWIKSVSDALDHVQAHPFVLKEQVDFFKQFERQE,not soluble
6,MGSDKIHHHHHHMLDENFEALRREATAWIVRITSGTATTEDAEALLRWRSRSDAHEQAFQQSARLWKNLGSALGETRKTSASTVTRRSFIAAGSVAAGAAGVGVVLSELGFLPSVDAMLADYATGVGEQRTVELVDGSTAILDGGTTLSLDYSPSSRHLVLTSGAAVFDVVHDAARPFVVTAANGDTTATGTSFSVKHGEEDVSIECLEGHITVQCLGDSQLNGGEGISYSRAGLGKKVAADIETAAAWRRGLLIFEDRPLADVVSDLNRHRRGRVVIASSDLRSRRMSGVFHLNRPDEILAHLEETLQVRPVSLVGGIVLLR,not soluble
7,MLQSGEWAYTEKLKEHFESPKNVLQGNDTSAFDGVGMEGNLQCGDQMMVAIKVDKESEKITDCQWKTYGCASAIASTSILSEMVKGMTLDQAFNISPKEVAKELGGLPENKIHCSVLGDKALRAAINDYFIRNGMSDRVQKVQARTVCQCMNVTDHDIEEAVLEGARTFYELQEHTKISTVCGQCREDAENELQKYIHLHFGS,soluble
8,MNRSMKQYDPIDFVVDWVDSNDISWKKKKSLYEENVISSVDDSQARYRDWGIFKYWFRAVEKNAPWVHKIFIITDHQNPKFLNKHSSKIVFVNHEDFIPNEYLPTFNSDAIEIGIQNIPGLSEHFVFFNDDMFINKPVKPIDFFDGNIPKDSGVMGPQFPISNSITHITVNNMEIINKYFLKKKVLRKYFFKFFNWRYGKDNIRTATALPWQVFIGFYDMHIPISFLKSTFDNVWSEVGNLLSQNYQHRFRSQLDYSVWLMRYFQLASGNFFPRRTRFGKYYNLGEQTEEIINDIKTGKHALIVLNDQESINDYPYEKKLVNEVFERRYSRKSEFENLEHHHHHH,not soluble
9,MTFNQEQDYWAGYKANERALIIQTWSGFGRYAPDHLYPPHILPLDTDNETLGTTVLQALANSRTFVYDSPEDQDFFDTEKIRQRYEDWVAKLCGNLGYKTRRALFKNMMSVDIWLHNGCLKISPSRHVKLEAWDAIDADDVILSLDNSPEEIGAGLKLALSRCR,soluble
10,MEIANKRAWREYISYEIIRLQMHQILTLFLLALAASPSQAVTDRSCGSDLSRLWLDIVFVVDNSKNMNLYNVYNTISNLFNPFVQIGTGYDDPRSTRVGFITYNWNATDVADFYKLQSYSDLSSQIQALSVTPLSRADETYIDTGLQAAINMINATGGLRDNYKKVVVLFTSKYNYYHTYPEDLTDYLKSTGVTIITVNTGGDSYTTQSLRDKIASKGMAFAMSDGNTTAELQKAVLAINCFCRPGWMQYHYPLKSDNIYSNYGVCLYRPDSAMTKFAAQSYCHSLTTNGYLVSELDQQKRAFNWDYLNSKGITINAFYNGLTNYNGTWWWDQPSGQPLWPLNPNSGAPPQRSGCVVDMKYSDGSISWTPISCTSFFRFLCESVACDTDNYCEF,not soluble
11,MERRLIFGTIASKMSLAPEADLDSLIIRNDSLSGAVIAAIMQEAGLRAVRKNRYVILQSDLEEAYATQVKTDNTVDKFDFYK,soluble
12,MGSDKIHHHHHHMDNIKQLSRLIIFAEVVQQGSFTGAAKQLGITKSAVSQQIKSLEADMDIRVLNRTTRGVSTTALGQKLLSRCQVLKDQVDLIFKDIVNAEENPRGRFAITLPHSLESNVVMPAIEQLCIEYPGIEPEIIVSDSSLDLVENNLDVAIHAGDLPDSSYRALPIGTITEIFCATPLYLNKNFTPQKLSDLAQLKWISTSWQKQKMSVYNSTNKEKVTIELTQFSKVNTFSTALAMALRHLGLVLLPDNVAKPLIKSGELVHIMEQFTGPVWPVHTLHAYQREKPVHLTRFHQLLCNHFHNL,not soluble
13,MAHHHHHHMLRARTLLLFMRPEAAAAELRRLLPLLSFAGRRTGAATHSVASLIVSTAYSATAARSVTNHSRDCPVLSKKLPLPLIGKESSFAARPCLNCVRERVHYVSSLSFCDYFEKKCAEAQHYRNGASSNGVVGTAALPKLLLEAIERSYGSVAAFKDSVMLHSTGAMSPGRLWIVYTPPISGSEHGAVRLLNLPACKVPLVHGLWPLAVINMTEKRLCEQIACRSGKGGDAVDADDAPAWRHAARTRKTLGALATTEEGNDRAGNVAQVKLSSIQSAIAEEALCAMNWKFVETQLTSALAYYSSKERTQTQREHRKEKEHVAAVRAMSQLKNSGAVIHATDSVTITSSNSFVASSASEPNLSAAAAVTSSSAKAENSALGEANTQTAAVAAPSAEATAANTASNSAQPADNTATGAAAAEPRAVQQADGTWEYHYNNGSVTKALPDGTKVFQTESLTTTVFVNGDTLFEYPNNTSILDRADGVRVITYADGTKKEERLK,soluble
14,MALLILFFLLGLSFSLEVFSEKLEIKENEIIAEGDAEAYYKNYYIKAKKIKLLRDKDEVYAYEDVYIKNLKTGFEIRGSFAYVNMKKNKGYFLNAKGKFREFNFEAKKIEQLDKERFKVYEATVTTCPLDDKELYLCIFRANITKERALIFHNRLKFFKVPIFYLPVYLIPLGGRKTGFLMPTIGSSTYSSFIYIQPFFWAISRDKDMTITADYRKDQMKGLSLEYRQAFDEESDLITQFSLYKEDKKKGDWWKGREMYRENRFRIFMKYRKKPFKIGVEELSDPYYYEDISFKQEEITKPYTKTYLIYEKETKNYLFYFQTVRYRDLTEEKNNAVNLLPEASFHLKPFYYKGFNFSLDSSFTNFYRNYDGSFMRISLEPTVGKYFELFKVSNYSSLTLINRYYPDSEEDKIVSTFRFRHSVPQYFSLSYGGFKFKNFLEGLYTFSPKDYEVQIFDYQDELNEENNFQFTLVGNLYKNRKLMDYFLNTGYNLLGSYTFPTDGKKIDKKLLPLYYNVSVYPVENVRFWQDAVYDFNLGVFARNVIGTDISWKNFSVGISNSVYKNSEKKVTTDQIALNLKYSGDKFFSGISLNYDRLVDKETYRNVYVGVKGKCWSLVLDYKRNYYRNRDEYVDQVFLRFNLFFKEEIEIPLRR,not soluble
15,MSLKSVVNDTDGIVRVAKSVIPEIKHQDEVRVKIASSGLCGSDLPRIFKNGAHYYPITLGHEFSGYIDAVGSGVDDLHPGDAVACVPLLPCFTCPECLKGFYSQCAKYDFIGSRRDGGFAEYIVVKRKNVFALPTDMPIEDGAFIEPITVGLHAFHLAQGCENKNVIIIGAGTIGLLAIQCAVALGAKSVTAIDISSEKLALAKSFGAMQTFNSSEMSAPQMQSVLRELRFNQLILETAGVPQTVELAVEIAGPHAQLALVGTLHQDLHLTSATFGKILRKELTVIGSWMNYSSPWPGQEWETASRLLTERKLSLEPLIAHRGSFESFTQAVRDIARNAMQGKVLLIPEGHHHHHH,soluble
16,MTTYTTNDFSEIVFGRKSVRVYDETHKISHEEMLTMIQEATTAPSSVNMQPWRFVVVESEAGKEKLKPLIRFNTRQNETSSAMLLIFGDLNCHERGEEIYNQAYASGKMPKEVRDQQLAAIIPHYESLSREQMNDIVKIDASLAAMQFMLVARAHGYETNPIGGFEAEKLAETFGLDQERYVPVMILSVGKGMETGYESVRLAPEKITTFE,not soluble
17,GIDPFTQRLNFGDDIPSALRIAKKKRWNSIEEKRISQENELHAYLSKLILAEKERELDDRVKQSDDSQNGGDISKMKSKHDKYLMDMDELFSQVDEKRKKREIPDYLCGKISFELMREPCITPSGITYDRKDIEEHLQRVGHFDPVTRSPLTQDQLIPNLAMKEVIDAFIQENGWVEDY,soluble
18,MKYRDLREFLNLLEQQGELVRVKQEIDPYLEMAEIADRTLRKAGPAILFENPKGYQMPVLCNLFGTPKRVALGMGQENTQALRELGKLLAFLKEPEPPKGFKELLGQLPQWKQILNMPSKTRDNAACQQIVIEGDAVNLYDLPIMHCHEEDIAPLITWGLTITQGPHKKRQNLGIYRQQLIAKNKLIMRWLSHRGGALDFQEWKATYPDKPFPVSVAIGADPATILAAVTPIPDTLPEYAFAGLLRGHKTEVIKSISNQLDVPASAEIVLEGYIDVNETALEGPYGDHTGYYNEQEYFPVFTVTHITMRKDAIYHSTYTGRPPDEPAVLGEALNEVFIPILQKQFPEIVDFYLPPEGCSYRLAVVTIKKQYAGHAKRVMMGVWSFLRQFMYTKFVIVCDDDINARNWKDVIWAITTRCDPSRDTTLIENTPIDYLDFASPIAGLGSKMGIDATNKWNGETIREWGKPITKNQQVVQHIDELWDQLGLLEHHHHHH,not soluble
19,RTVRQTPKQSERYVVVLSLDGFRPDYTDRARTPALDRMAQEGLSGSLQPCFPSLTFPNHYSMATGLYPDHHGIVANEFVDSLLGIFRISDRKAVETPGFWGGEPVWNTAARQGIRTGVYFWVGSETAVNGNRPWRWKKFSSTVPFRDRADSVIAWLGLPEKERPRLLMWYIEEPDMIGHSQTPESPLTLAMVERLDSVVGYFRKRLDSLPIAAQTDFIIVSDHGMATYENEKCVNLSH,not soluble
20,GGKFVQAWSQFPAGKWGVEPNPVSVVPTHGEVLNDGKVKEVPWVLELTPMPVSGTTVGKDGINPDEPMTLETVDRFAREIGFKGRYQLNLPKGEDGVWTLSQDSMSYDMISPFADRTVHIDQYSGKILADIRFDDYNPFGKFMAASIALHMGTLG,not soluble
